{"source": "paper PMC9045721", "about": "“Cryo-EM structure of the EBV ribonucleotide reductase BORF2 and mechanism of APOBEC3B inhibition” (Science Advances, 2022)", "binders": {"B1": {"name": "MBP-BORF2 (1 to 826) (enzyme)", "chain": "MATTSHVEHELLSKLIDELKVKANSDPEADVLAGRLLHRLKAESVTHTVAEYLEVFSDKFYDEEFFQMHRDELETRVSAFAQSPAYERIVSSGYLSALRYYDTYLYVGRSGKQESVQHFYMRLAGFCASTTCLYAGLRAALQRARPEIESDMEVFDYYFEHLTSQTVCCSTPFMRFAGVENSTLASCILTTPDLSSEWDVTQALYRHLGRYLFQRAGVGVGVTGAGQDGKHISLLMRMINSHVEYHNYGCKRPVSVAAYMEPWHSQIFKFLETKLPENHERCPGIFTGLFVPELFFKLFRDTPWSDWYLFDPKDAGDLERLYGEEFEREYYRLVTAGKFCGRVSIKSLMFSIVNCAVKAGSPFILLKEACNAHFWRDLQGEAMNAANLCAEVLQPSRKSVATCNLANICLPRCLVNAPLAVRAQRADTQGDELLLALPRLSVTLPGEGAVGDGFSLARLRDATQCATFVVACSILQGSPTYDSRDMASMGLGVQGLADVFADLGWQYTDPPSRSLNKEIFEHMYFTALCTSSLIGLHTRKIFPGFKQSKYAGGWFHWHDWAGTDLSIPREIWSRLSERIVRDGLFNSQFIALMPTSGCAQVTGCSDAFYPFYANASTKVTNKEEALRPNRSFWRHVRLDDREALNLVGGRVSCLPEALRQRYLRFQTAFDYNQEDLIQMSRDRAPFVDQSQSHSLFLREEDAARASTLANLLVRSYELGLKTIMYYCRIEKAADLGVMECKASAALSVPREEQNERSPAEQMPPRPMEPAQVAGPVDIMSKGPGEGPGGWCVPGGLEVCYKYRQLFSEDDLLETDGFTERACESCQ", "notes": "Epstein-Barr virus ribonucleotide reductase large subunit BORF2, residues 1 to 826, codon-optimized gene; wild-type constructs match GenBank V01555.2; Dimer in the cryo-EM structure; The MBP tag was not detected in the maps; also called EBV RNR large subunit; wild-type BORF2; source: 293T, transfected; purified (amylose resin, SEC); not shown: MBP, N-terminal, kept"}, "B2": {"name": "A3Bctd (193-382)-mycHis (domain or fragment)", "chain": "not shown", "notes": "APOBEC3B (A3B) C-terminal catalytic domain (ctd), residues 193-382; wild-type constructs match GenBank NM_004900; also called A3Bctd-mycHis; A3B-mycHis; not shown: myc, C-terminal, kept; His, C-terminal, kept"}}, "key": {"[1]": {"target": "B2", "assay": "SEC; BORF2 and A3Bctd purified individually with affinity resins, mixed with excess A3Bctd, run on SEC; SDS-PAGE of the fractions of the major peak; 20 mM tris-HCl (pH 8), 150 mM NaCl", "conditions": "both partners purified"}, "[2]": {"target": "the molecule itself", "assay": "cryo-EM structure; MBP-BORF2 (after amylose resin) mixed with excess purified A3Bctd-mycHis, complex isolated by SEC in 20 mM tris-HCl (pH 8), 150 mM NaCl, 1 mM TCEP; dimeric classes, C2, focused refinement"}, "[3]": {"target": "the molecule itself", "assay": "SEC; MBP-BORF2 and mutant derivatives purified with amylose resin; approximately 150 ug of each on S200 Increase in 10 mM tris-HCl (pH 8), 150 mM NaCl; self-association (dimer to monomers)"}, "[4]": {"target": "B1", "assay": "BLI; Octet RED; A3-mycHis proteins loaded on Ni-NTA biosensors (12.5 ug/ml A3Bctd and A3A, 8 ug/ml A3G); MBP-BORF2 200 to 6.25 nM; 20 mM tris-HCl (pH 8), 300 mM NaCl; 30°C; association 1200 s, dissociation 1800 s; 1:2 binding model", "conditions": "both partners purified"}}}
{"binder": "B1", "values": [{"measurement": "stoichiometry N", "setting": "[1]", "value": 1}, {"measurement": "stoichiometry N", "setting": "[2]", "value": 2}]}
{"binder": "MBP-BORF2 D26R (enzyme, Epstein-Barr virus (EBV), UniProt P03190 1-826, looked up, Epstein-Barr virus BORF2, residues 1 to 826, codon-optimized gene; GenBank V01555.2; source: 293T, transfected; purified with amylose resin (SEC profiles); in lysate (co-IP); not shown: MBP, N-terminal, kept) MATTSHVEHELLSKLIDELKVKANSRPEADVLAGRLLHRLKAESVTHTVAEYLEVFSDKFYDEEFFQMHRDELETRVSAFAQSPAYERIVSSGYLSALRYYDTYLYVGRSGKQESVQHFYMRLAGFCASTTCLYAGLRAALQRARPEIESDMEVFDYYFEHLTSQTVCCSTPFMRFAGVENSTLASCILTTPDLSSEWDVTQALYRHLGRYLFQRAGVGVGVTGAGQDGKHISLLMRMINSHVEYHNYGCKRPVSVAAYMEPWHSQIFKFLETKLPENHERCPGIFTGLFVPELFFKLFRDTPWSDWYLFDPKDAGDLERLYGEEFEREYYRLVTAGKFCGRVSIKSLMFSIVNCAVKAGSPFILLKEACNAHFWRDLQGEAMNAANLCAEVLQPSRKSVATCNLANICLPRCLVNAPLAVRAQRADTQGDELLLALPRLSVTLPGEGAVGDGFSLARLRDATQCATFVVACSILQGSPTYDSRDMASMGLGVQGLADVFADLGWQYTDPPSRSLNKEIFEHMYFTALCTSSLIGLHTRKIFPGFKQSKYAGGWFHWHDWAGTDLSIPREIWSRLSERIVRDGLFNSQFIALMPTSGCAQVTGCSDAFYPFYANASTKVTNKEEALRPNRSFWRHVRLDDREALNLVGGRVSCLPEALRQRYLRFQTAFDYNQEDLIQMSRDRAPFVDQSQSHSLFLREEDAARASTLANLLVRSYELGLKTIMYYCRIEKAADLGVMECKASAALSVPREEQNERSPAEQMPPRPMEPAQVAGPVDIMSKGPGEGPGGWCVPGGLEVCYKYRQLFSEDDLLETDGFTERACESCQ", "values": [{"measurement": "binding result", "setting": "[3]", "value": "binds"}]}
{"binder": "MBP-BORF2 R39E/D26R (enzyme, Epstein-Barr virus (EBV), UniProt P03190 1-826, looked up, Epstein-Barr virus BORF2, residues 1 to 826, codon-optimized gene; GenBank V01555.2; also called D26R/R39E BORF2; double mutant R39E/D26R; source: 293T, transfected; purified with amylose resin (SEC profiles); in lysate (co-IP); not shown: MBP, N-terminal, kept) MATTSHVEHELLSKLIDELKVKANSRPEADVLAGRLLHELKAESVTHTVAEYLEVFSDKFYDEEFFQMHRDELETRVSAFAQSPAYERIVSSGYLSALRYYDTYLYVGRSGKQESVQHFYMRLAGFCASTTCLYAGLRAALQRARPEIESDMEVFDYYFEHLTSQTVCCSTPFMRFAGVENSTLASCILTTPDLSSEWDVTQALYRHLGRYLFQRAGVGVGVTGAGQDGKHISLLMRMINSHVEYHNYGCKRPVSVAAYMEPWHSQIFKFLETKLPENHERCPGIFTGLFVPELFFKLFRDTPWSDWYLFDPKDAGDLERLYGEEFEREYYRLVTAGKFCGRVSIKSLMFSIVNCAVKAGSPFILLKEACNAHFWRDLQGEAMNAANLCAEVLQPSRKSVATCNLANICLPRCLVNAPLAVRAQRADTQGDELLLALPRLSVTLPGEGAVGDGFSLARLRDATQCATFVVACSILQGSPTYDSRDMASMGLGVQGLADVFADLGWQYTDPPSRSLNKEIFEHMYFTALCTSSLIGLHTRKIFPGFKQSKYAGGWFHWHDWAGTDLSIPREIWSRLSERIVRDGLFNSQFIALMPTSGCAQVTGCSDAFYPFYANASTKVTNKEEALRPNRSFWRHVRLDDREALNLVGGRVSCLPEALRQRYLRFQTAFDYNQEDLIQMSRDRAPFVDQSQSHSLFLREEDAARASTLANLLVRSYELGLKTIMYYCRIEKAADLGVMECKASAALSVPREEQNERSPAEQMPPRPMEPAQVAGPVDIMSKGPGEGPGGWCVPGGLEVCYKYRQLFSEDDLLETDGFTERACESCQ", "values": [{"measurement": "binding result", "setting": "[3]", "value": "binds"}]}
{"binder": "B2", "values": [{"measurement": "Kd", "setting": "[4]", "value": "~1", "unit": "nM"}]}
